Reference: patent publication US10280205B2, “Method for treating cancer with an activated T lymphocyte that selectively recognizes a cancer cell consisting of specific peptide” (immatics biotechnologies GmbH, priority 2015, dated 2019)

target: HLA-A*02:01 (Homo sapiens, UniProt P04439, D140Y/D185E/D98H/E176V/E277Q/G131W/G231S/I119V/I121R/I166T/I218V/L300P/L318F/N151K/N90K/P208A/P217A/Q86G/Q94H/R138H/R169H/T345S); assay: MHC binding assay: UV-ligand exchange with beta2m ELISA (exchange yield); details: binding to HLA-A*02:01, β2m ELISA
Procedure, shortened: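 Peptide–HLA-A*02:01 complexes formed by UV-induced exchange of a photocleavable ligand for the test peptide. Exchange products diluted 100-fold and captured on streptavidin-coated plates. Stabilized complexes detected with HRP anti-β2m (1 h, 37° C.) and TMB, A450; exchange yield reported.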

Substance | Peptide exchange (MHC class I binding score, peptide exchange yield)
230 (ILVDWLVEV; listed as Homo sapiens) [compound 230] | “+” (≥10% = +)
121 (GVVDPRAISVL; listed as Homo sapiens) [compound 121] | “++” (≥20% = ++)
29 (KMLGIPISNILMV; listed as Homo sapiens) [compound 29] | “+++” (≥50 = +++)
315 (YLQDVVEQA; listed as Homo sapiens) [compound 315] | “+++” (≥50 = +++)
19 (FMVDNEAIYDI; listed as Homo sapiens) [compound 19] | “++++” (≥75% = ++++)
342 (HIYDKVMTV; listed as Homo sapiens) [compound 342] | “+++” (≥50 = +++)
485 (NVPDSFNEV; listed as Homo sapiens) [compound 485] | “+++” (≥50 = +++)
179 (KVLNELYTV; listed as Homo sapiens) [compound 179] | “+++” (≥50 = +++)
244 (SLFGGTEITI; listed as Homo sapiens) [compound 244] | “+++” (≥50 = +++)
613 (RLLPPGAVVAV; listed as Homo sapiens) [compound 613] | “+++” (≥50 = +++)
39 (SVAPNLPAV; listed as Homo sapiens) [compound 39] | “+++” (≥50 = +++)
135 (ALSEVDFQL; listed as Homo sapiens) [compound 135] | “+++” (≥50 = +++)
380 (TLIEDEIATI; listed as Homo sapiens) [compound 380] | “++” (≥20% = ++)
226 (MLYVVPIYL; listed as Homo sapiens) [compound 226] | “++” (≥20% = ++)
278 (QLLDVVLTI; listed as Homo sapiens) [compound 278] | “++” (≥20% = ++)
243 (LLLNELPSV; listed as Homo sapiens) [compound 243] | “+++” (≥50 = +++)
198 (KTINKVPTV; listed as Homo sapiens) [compound 198] | “+++” (≥50 = +++)
126 (VLAYFLPEA; listed as Homo sapiens) [compound 126] | “++++” (≥75% = ++++)
69 (FQLDPSSGVLVTV; listed as Homo sapiens) [compound 69] | “+++” (≥50 = +++)
279 (ALWGGTQPLL; listed as Homo sapiens) [compound 279] | “++” (≥20% = ++)
5 (HLTEVYPEL; listed as Homo sapiens) [compound 5] | “+++” (≥50 = +++)
450 (FMIDASVHPTL; listed as Homo sapiens) [compound 450] | “+++” (≥50 = +++)
125 (VQIHQVAQV; listed as Homo sapiens) [compound 125] | “+++” (≥50 = +++)

Substance | Peptide exchange (MHC class I binding score, peptide exchange yield)
591 (SMAELDIKL; listed as Homo sapiens) [compound 591] | “+++” (≥50 = +++)
365 (YVIDQGETDVYV; listed as Homo sapiens) [compound 365] | “+++” (≥50 = +++)
558 (GLLENIPRV; listed as Homo sapiens) [compound 558] | “+++” (≥50 = +++)
361 (ALYELEGTTV; listed as Homo sapiens) [compound 361] | “+++” (≥50 = +++)
617 (ALMYESEKVGV; listed as Homo sapiens) [compound 617] | “+++” (≥50 = +++)
66 (FLDENIGGVAV; listed as Homo sapiens) [compound 66] | “+++” (≥50 = +++)
366 (RLLDMGETDLML; listed as Homo sapiens) [compound 366] | “+++” (≥50 = +++)
547 (TLDITPHTV; listed as Homo sapiens) [compound 547] | “+++” (≥50 = +++)
210 (LLLNAVLTV; listed as Homo sapiens) [compound 210] | “++” (≥20% = ++)
222 (NLIENVQRL; listed as Homo sapiens) [compound 222] | “++” (≥20% = ++)
531 (YTLPIASSIRL; listed as Homo sapiens) [compound 531] | “+++” (≥50 = +++)
186 (TLFFQQNAL; listed as Homo sapiens) [compound 186] | “++” (≥20% = ++)
159 (GLVGNPLPSV; listed as Homo sapiens) [compound 159] | “++++” (≥75% = ++++)
428 (KLGHTDILVGV; listed as Homo sapiens) [compound 428] | “++” (≥20% = ++)
25 (FLPDEPYIKV; listed as Homo sapiens) [compound 25] | “+++” (≥50 = +++)
310 (FLVDTPLARA; listed as Homo sapiens) [compound 310] | “++++” (≥75% = ++++)
296 (FMEGAIIYV; listed as Homo sapiens) [compound 296] | “+++” (≥50 = +++)
538 (LLLAHIIAL; listed as Homo sapiens) [compound 538] | “++” (≥20% = ++)
537 (TLAPGEVLRSV; listed as Homo sapiens) [compound 537] | “+++” (≥50 = +++)
235 (YLNDLHEVLL; listed as Homo sapiens) [compound 235] | “++++” (≥75% = ++++)
560 (ALWDIETGQQTTT; listed as Homo sapiens) [compound 560] | “+++” (≥50 = +++)
82 (FLSSVTYNL; listed as Homo sapiens) [compound 82] | “+++” (≥50 = +++)
394 (LLAVIGGLVYL; listed as Homo sapiens) [compound 394] | “+++” (≥50 = +++)

Substance | Peptide exchange (MHC class I binding score, peptide exchange yield)
51 (LLPDLEFYV; listed as Homo sapiens) [compound 51] | “++++” (≥75% = ++++)
449 (KLAEGLDIQL; listed as Homo sapiens) [compound 449] | “+++” (≥50 = +++)
465 (QLCDLNAEL; listed as Homo sapiens) [compound 465] | “+++” (≥50 = +++)
139 (SVMEVNSGIYRV; listed as Homo sapiens) [compound 139] | “+++” (≥50 = +++)
131 (FVPPVTVFPSL; listed as Homo sapiens) [compound 131] | “++” (≥20% = ++)
372 (TMLLNIPLV; listed as Homo sapiens) [compound 372] | “++” (≥20% = ++)
506 (KLLGKVETA; listed as Homo sapiens) [compound 506] | “+++” (≥50 = +++)
95 (SVIPQIQKV; listed as Homo sapiens) [compound 95] | “+++” (≥50 = +++)
303 (AILPQLFMV; listed as Homo sapiens) [compound 303] | “++++” (≥75% = ++++)
434 (KVSNSGITRV; listed as Homo sapiens) [compound 434] | “++” (≥20% = ++)
439 (YLLQEIYGI; listed as Homo sapiens) [compound 439] | “+++” (≥50 = +++)
347 (SLFKHDPAAWEA; listed as Homo sapiens) [compound 347] | “++++” (≥75% = ++++)
246 (LLWEVVSQL; listed as Homo sapiens) [compound 246] | “+++” (≥50 = +++)
491 (GLNDRSDAV; listed as Homo sapiens) [compound 491] | “++” (≥20% = ++)
466 (VLIANLEKL; listed as Homo sapiens) [compound 466] | “++++” (≥75% = ++++)
576 (ILLNNSGQIKL; listed as Homo sapiens) [compound 576] | “++++” (≥75% = ++++)
396 (ALLPDLPAL; listed as Homo sapiens) [compound 396] | “+++” (≥50 = +++)
332 (YLISELEAA; listed as Homo sapiens) [compound 332] | “+++” (≥50 = +++)
608 (SLLSVSHAL; listed as Homo sapiens) [compound 608] | “+++” (≥50 = +++)
385 (SLLEQGLVEA; listed as Homo sapiens) [compound 385] | “++” (≥20% = ++)
333 (FLPDANSSV; listed as Homo sapiens) [compound 333] | “++” (≥20% = ++)
